Drawing on the Human Domainome abundance scans (Beltran et al. 2025), this text covers abundance fitness for 36 variants.

B1: Androgen receptor, residues 557 to 632; numbered along this chain, P10275 (parent)
chain: QKTCLICGDEASGCHYGALTCGSCKVFFKRAAEGKQKYLCASRNDCTIDKFRRKNCPSCRLRKCYEAGMTLGARKL

± gives the uncertainty stated by the source.

Variants of B1 are the subject of this data set. Description: abundance fitness (aPCA) (normalised: wild type 0, dead -1); higher = more abundant; growth selection in yeast, the domain comes from the species named. Particulars: Homo sapiens.
Consider QKTCLICGDEASGCHYGALTCGSCKVFFKRAAEGKQMYLCASRNDCTIDKFRRKNCPSCRLRKCYEAGMTLGARKL, for which the abundance fitness is -0.131 ± 0.1.
As to QKTCLICGDEASGCHYGALTCGSCKVFFKRAAEGKQCYLCASRNDCTIDKFRRKNCPSCRLRKCYEAGMTLGARKL, the abundance fitness is -0.185 ± 0.093.
The same measure for QKTCLICGDEASGCHYGALTCGSCKVFFKRAAEGKQLYLCASRNDCTIDKFRRKNCPSCRLRKCYEAGMTLGARKL: -0.126 ± 0.055.
The same measure for QKTCLICGDEASGCHYGALTCGSCKVFFKRAAEGKQNYLCASRNDCTIDKFRRKNCPSCRLRKCYEAGMTLGARKL: 0.073 ± 0.15.
As for QKTCLICGDEASGCHYGALTCGSCKVFFKRAAEGKQYYLCASRNDCTIDKFRRKNCPSCRLRKCYEAGMTLGARKL, the figure is -0.178 ± 0.12; as for QKTCLICGDEASGCHYGALTCGSCKVFFKRAAEGKQQYLCASRNDCTIDKFRRKNCPSCRLRKCYEAGMTLGARKL, 0.079 ± 0.081; as for QKTCLICGDEASGCHYGALTCGSCKVFFKRAAEGKQPYLCASRNDCTIDKFRRKNCPSCRLRKCYEAGMTLGARKL, 0.006 ± 0.088.
As to QKTCLICGDEASGCHYGALTCGSCKVFFKRAAEGKQWYLCASRNDCTIDKFRRKNCPSCRLRKCYEAGMTLGARKL, the abundance fitness is -0.168 ± 0.071.
As for QKTCLICGDEASGCHYGALTCGSCKVFFKRAAEGKQIYLCASRNDCTIDKFRRKNCPSCRLRKCYEAGMTLGARKL, the abundance fitness is -0.091 ± 0.15.
As for QKTCLICGDEASGCHYGALTCGSCKVFFKRAAEGKQDYLCASRNDCTIDKFRRKNCPSCRLRKCYEAGMTLGARKL, the figure is -0.009 ± 0.1.
Regarding QKTCLICGDEASGCHYGALTCGSCKVFFKRAAEGKQAYLCASRNDCTIDKFRRKNCPSCRLRKCYEAGMTLGARKL, the abundance fitness was 0.038 ± 0.045.
The same measure for QKTCLICGDEASGCHYGALTCGSCKVFFKRAAEGKQRYLCASRNDCTIDKFRRKNCPSCRLRKCYEAGMTLGARKL: -0.054 ± 0.045; for QKTCLICGDEASGCHYGALTCGSCKVFFKRAAEGKQSYLCASRNDCTIDKFRRKNCPSCRLRKCYEAGMTLGARKL: -0.086 ± 0.062.
The same measure for QKTCLICGDEASGCHYGALTCGSCKVFFKRAAEGKQGYLCASRNDCTIDKFRRKNCPSCRLRKCYEAGMTLGARKL: -0.08 ± 0.039; for QKTCLICGDEASGCHYGALTCGSCKVFFKRAAEGKQFYLCASRNDCTIDKFRRKNCPSCRLRKCYEAGMTLGARKL: -0.331 ± 0.26.
In the case of QKTCLICGDEASGCHYGALTCGSCKVFFKRAAEGKQTYLCASRNDCTIDKFRRKNCPSCRLRKCYEAGMTLGARKL, the abundance fitness was found to be 0.01 ± 0.077.
As for QKTCLICGDEASGCHYGALTCGSCKVFFKRAAEGKQHYLCASRNDCTIDKFRRKNCPSCRLRKCYEAGMTLGARKL, the figure is 0.168 ± 0.12; as for QKTCLICGDEASGCHYGALTCGSCKVFFKRAAEGKQKYLCFSRNDCTIDKFRRKNCPSCRLRKCYEAGMTLGARKL, -0.113 ± 0.09; as for QKTCLICGDEASGCHYGALTCGSCKVFFKRAAEGKQKYLCGSRNDCTIDKFRRKNCPSCRLRKCYEAGMTLGARKL, -0.091 ± 0.075.
As for QKTCLICGDEASGCHYGALTCGSCKVFFKRAAEGKQKYLCDSRNDCTIDKFRRKNCPSCRLRKCYEAGMTLGARKL, the figure is 0.041 ± 0.081.
As for QKTCLICGDEASGCHYGALTCGSCKVFFKRAAEGKQKYLCCSRNDCTIDKFRRKNCPSCRLRKCYEAGMTLGARKL, the figure is -0.18 ± 0.13; as for QKTCLICGDEASGCHYGALTCGSCKVFFKRAAEGKQKYLCESRNDCTIDKFRRKNCPSCRLRKCYEAGMTLGARKL, -0.079 ± 0.13; as for QKTCLICGDEASGCHYGALTCGSCKVFFKRAAEGKQKYLIASRNDCTIDKFRRKNCPSCRLRKCYEAGMTLGARKL, -0.948 ± 0.39.
On to QKTCLICGDEASGCHYGALTCGSCKVFFKRAAEGKQKYLDASRNDCTIDKFRRKNCPSCRLRKCYEAGMTLGARKL, for which the abundance fitness is -1.14 ± 0.25.
As for QKTCLICGDEASGCHYGALTCGSCKVFFKRAAEGKQKYLKASRNDCTIDKFRRKNCPSCRLRKCYEAGMTLGARKL, the figure is -0.632 ± 0.26; as for QKTCLICGDEASGCHYGALTCGSCKVFFKRAAEGKQKYLEASRNDCTIDKFRRKNCPSCRLRKCYEAGMTLGARKL, -0.576 ± 0.25.
Consider QKTCLICGDEASGCHYGALTCGSCKVFFKRAAEGKQKYLYASRNDCTIDKFRRKNCPSCRLRKCYEAGMTLGARKL, for which the abundance fitness was -1.13 ± 0.39.
As for QKTCLICGDEASGCHYGALTCGSCKVFFKRAAEGKQKYLTASRNDCTIDKFRRKNCPSCRLRKCYEAGMTLGARKL, the figure is -0.554 ± 0.22; as for QKTCLICGDEASGCHYGALTCGSCKVFFKRAAEGKQKYLPASRNDCTIDKFRRKNCPSCRLRKCYEAGMTLGARKL, -0.756 ± 0.18.
The same measure for QKTCLICGDEASGCHYGALTCGSCKVFFKRAAEGKQKYLSASRNDCTIDKFRRKNCPSCRLRKCYEAGMTLGARKL: -0.713 ± 0.086.
Take QKTCLICGDEASGCHYGALTCGSCKVFFKRAAEGKQKYLVASRNDCTIDKFRRKNCPSCRLRKCYEAGMTLGARKL: the abundance fitness was -0.693 ± 0.096.
Regarding QKTCLICGDEASGCHYGALTCGSCKVFFKRAAEGKQKYLWASRNDCTIDKFRRKNCPSCRLRKCYEAGMTLGARKL, the abundance fitness was -1.16 ± 0.2.
The same measure for QKTCLICGDEASGCHYGALTCGSCKVFFKRAAEGKQKYLRASRNDCTIDKFRRKNCPSCRLRKCYEAGMTLGARKL: -0.798 ± 0.13; for QKTCLICGDEASGCHYGALTCGSCKVFFKRAAEGKQKYLGASRNDCTIDKFRRKNCPSCRLRKCYEAGMTLGARKL: -0.891 ± 0.092; for QKTCLICGDEASGCHYGALTCGSCKVFFKRAAEGKQKYLQASRNDCTIDKFRRKNCPSCRLRKCYEAGMTLGARKL: -0.482 ± 0.15.
As for QKTCLICGDEASGCHYGALTCGSCKVFFKRAAEGKYKYLCASRNDCTIDKFRRKNCPSCRLRKCYEAGMTLGARKL, the figure is -0.189 ± 0.064.
